T1: recombinant human LAG-3 (human, UniProt P18627 23-450, limits assumed)
T1 sequence (looked up): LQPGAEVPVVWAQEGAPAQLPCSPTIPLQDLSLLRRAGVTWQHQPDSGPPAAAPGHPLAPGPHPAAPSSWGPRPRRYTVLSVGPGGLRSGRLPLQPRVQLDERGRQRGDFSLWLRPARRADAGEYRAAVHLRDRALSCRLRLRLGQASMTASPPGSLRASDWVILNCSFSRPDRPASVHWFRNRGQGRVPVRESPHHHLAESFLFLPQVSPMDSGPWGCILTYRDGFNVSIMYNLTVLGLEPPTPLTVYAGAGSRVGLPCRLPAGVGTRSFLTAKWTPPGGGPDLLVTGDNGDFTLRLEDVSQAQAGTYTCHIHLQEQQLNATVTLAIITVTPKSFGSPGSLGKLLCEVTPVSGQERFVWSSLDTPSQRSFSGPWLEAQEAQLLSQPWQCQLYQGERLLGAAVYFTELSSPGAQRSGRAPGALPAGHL


molecular target: T1, recombinant human LAG-3; test: surface plasmon resonance (data not shown)

| binding result | Binder |
| --- | --- |
| binds | P13B02-12 (antibody, IgG1, V domains shown, Humanized; generated as full length IgG1) VH: QVQLVQSGAEVKKPGASVKVSCKASGFNIKDTYIHWVRQAPGQGLEWMGEIDPANDNTKYDPKFQGRVTITADTSSNTVYMELSSLRSEDTAVYYCATYYYRYDVGGFDYWGQGTLVTVSS VL: EIVLTQSPGTLSLSPGERATLSCSVSSSISSSNLHWYQQKPGQAPRLLIYGTSNLASGIPDRFSGSGSGTSYTLTISRLEPEDFAVYYCQQWSSYPFTFGQGTKVEIK |
| binds | P13B02-04 (antibody, IgG1, V domains shown, Humanized; generated as full length IgG1) VH: QVQLVQSGAEVKKPGASVKVSCKASGFNIKDTYIHWVRQAPGQGLEWMGEIDPANDNTKYDPKFQGRVTMTRDTSTSTVYMELSSLRSEDTAVYYCARYYYRYDVGGFDYWGQGTLVTVSS VL: EILLTQSPGTLSLSPGERATLSCSVSSSISSSNLHWFQQKPGQAPRLWIYGTSNLASGVPDRFSGSGSGTSYTLTISRLEPEDFAVYYCQQWSSYPFTFGQGTKVEIK |
| binds | P13B02-01 (antibody, IgG1, V domains shown, Humanized; generated as full length IgG1) VH: QVQLVQSGAEVKKPGASVKVSCKASGFNIKDTYIHWVRQAPGQGLEWMGEIDPANDNTKYDPKFQGRVTMTRDTSTSTVYMELSSLRSEDTAVYYCARYYYRYDVGGFDYWGQGTLVTVSS VL: EIVLTQSPGTLSLSPGERATLSCSVSSSISSSNLHWYQQKPGQAPRLLIYGTSNLASGIPDRFSGSGSGTDFTLTISRLEPEDFAVYYCQQWSSYPFTFGQGTKVEIK |
| binds | P13B02-20 (antibody, IgG1, V domains shown, Humanized; generated as full length IgG1) VH: QVQMKQSGAEVKKPGASVKVSCTASGFNIKDTYIHWVRQAPGQGLEWMGEIDPANDNTKYDPKFQGRVTITADTSSNTVYMELSSLRSEDTAVYYCATYYYRYDVGGFDYWGQGTLVTVSS VL: EILLTQSPGTLSLSPGERATLTCSVSSSISSSNLHWFQQKPGQSPRLWIYGTSNLASGVPDRFSGSGSGTSYTLTISRLEPEDFAVYYCQQWSSYPFTFGQGTKVEIK |
| binds | P13B02-15 (antibody, IgG1, V domains shown, Humanized; generated as full length IgG1) VH: QVQLVQSGAEVKKPGASVKVSCKASGFNIKDTYIHWVRQAPGQGLEWMGEIDPANDNTKYDPKFQGRVTITADTSSNTVYMELSSLRSEDTAVYYCATYYYRYDVGGFDYWGQGTLVTVSS VL: EILLTQSPGTLSLSPGERATLTCSVSSSISSSNLHWFQQKPGQSPRLWIYGTSNLASGVPDRFSGSGSGTSYTLTISRLEPEDFAVYYCQQWSSYPFTFGQGTKVEIK |
| binds | P13B02-14 (antibody, IgG1, V domains shown, Humanized; generated as full length IgG1) VH: QVQLVQSGAEVKKPGASVKVSCKASGFNIKDTYIHWVRQAPGQGLEWMGEIDPANDNTKYDPKFQGRVTITADTSSNTVYMELSSLRSEDTAVYYCATYYYRYDVGGFDYWGQGTLVTVSS VL: EILLTQSPGTLSLSPGERATLSCSVSSSISSSNLHWFQQKPGQAPRLWIYGTSNLASGVPDRFSGSGSGTSYTLTISRLEPEDFAVYYCQQWSSYPFTFGQGTKVEIK |
| binds | P13B02-13 (antibody, IgG1, V domains shown, Humanized; generated as full length IgG1) VH: QVQLVQSGAEVKKPGASVKVSCKASGFNIKDTYIHWVRQAPGQGLEWMGEIDPANDNTKYDPKFQGRVTITADTSSNTVYMELSSLRSEDTAVYYCATYYYRYDVGGFDYWGQGTLVTVSS VL: EILLTQSPGTLSLSPGERATLSCSVSSSISSSNLHWFQQKPGQAPRLLIYGTSNLASGIPDRFSGSGSGTSYTLTISRLEPEDFAVYYCQQWSSYPFTFGQGTKVEIK |
| binds | P13B02-05 (antibody, IgG1, V domains shown, Humanized; generated as full length IgG1) VH: QVQLVQSGAEVKKPGASVKVSCKASGFNIKDTYIHWVRQAPGQGLEWMGEIDPANDNTKYDPKFQGRVTMTRDTSTSTVYMELSSLRSEDTAVYYCARYYYRYDVGGFDYWGQGTLVTVSS VL: EILLTQSPGTLSLSPGERATLTCSVSSSISSSNLHWFQQKPGQSPRLWIYGTSNLASGVPDRFSGSGSGTSYTLTISRLEPEDFAVYYCQQWSSYPFTFGQGTKVEIK |
| binds | P13B02-03 (antibody, IgG1, V domains shown, Humanized; generated as full length IgG1) VH: QVQLVQSGAEVKKPGASVKVSCKASGFNIKDTYIHWVRQAPGQGLEWMGEIDPANDNTKYDPKFQGRVTMTRDTSTSTVYMELSSLRSEDTAVYYCARYYYRYDVGGFDYWGQGTLVTVSS VL: EILLTQSPGTLSLSPGERATLSCSVSSSISSSNLHWFQQKPGQAPRLLIYGTSNLASGIPDRFSGSGSGTSYTLTISRLEPEDFAVYYCQQWSSYPFTFGQGTKVEIK |
| binds | P13B02-02 (antibody, IgG1, V domains shown, Humanized; generated as full length IgG1) VH: QVQLVQSGAEVKKPGASVKVSCKASGFNIKDTYIHWVRQAPGQGLEWMGEIDPANDNTKYDPKFQGRVTMTRDTSTSTVYMELSSLRSEDTAVYYCARYYYRYDVGGFDYWGQGTLVTVSS VL: EIVLTQSPGTLSLSPGERATLSCSVSSSISSSNLHWYQQKPGQAPRLLIYGTSNLASGIPDRFSGSGSGTSYTLTISRLEPEDFAVYYCQQWSSYPFTFGQGTKVEIK |
| binds | P13B02-21 (antibody, IgG1, V domains shown, Humanized; generated as full length IgG1) VH: QVQMKQSGAEVVKPGASVKVSCTASGFNIKDTYIHWVRQAPGQGLEWIGEIDPANDNTKYDPKFQGRVTITADTSSNTVYLQLSSLRSEDTAVYYCATYYYRYDVGGFDYWGQGTLVTVSS VL: EIVLTQSPGTLSLSPGERATLSCSVSSSISSSNLHWYQQKPGQAPRLLIYGTSNLASGIPDRFSGSGSGTDFTLTISRLEPEDFAVYYCQQWSSYPFTFGQGTKVEIK |
| binds | P13B02-11 (antibody, IgG1, V domains shown, Humanized; generated as full length IgG1) VH: QVQLVQSGAEVKKPGASVKVSCKASGFNIKDTYIHWVRQAPGQGLEWMGEIDPANDNTKYDPKFQGRVTITADTSSNTVYMELSSLRSEDTAVYYCATYYYRYDVGGFDYWGQGTLVTVSS VL: EIVLTQSPGTLSLSPGERATLSCSVSSSISSSNLHWYQQKPGQAPRLLIYGTSNLASGIPDRFSGSGSGTDFTLTISRLEPEDFAVYYCQQWSSYPFTFGQGTKVEIK |
| binds | P13B02-10 (antibody, IgG1, V domains shown, Humanized; generated as full length IgG1) VH: QVQLVQSGAEVKKPGASVKVSCKASGFNIKDTYIHWVRQAPGQGLEWMGEIDPANDNTKYDPKFQGRVTITADTSTSTVYMELSSLRSEDTAVYYCATYYYRYDVGGFDYWGQGTLVTVSS VL: EILLTQSPGTLSLSPGERATLTCSVSSSISSSNLHWFQQKPGQSPRLWIYGTSNLASGVPDRFSGSGSGTSYTLTISRLEPEDFAVYYCQQWSSYPFTFGQGTKVEIK |
| binds | P13B02-23 (antibody, IgG1, V domains shown, Humanized; generated as full length IgG1) VH: QVQMKQSGAEVVKPGASVKVSCTASGFNIKDTYIHWVRQAPGQGLEWIGEIDPANDNTKYDPKFQGRVTITADTSSNTVYLQLSSLRSEDTAVYYCATYYYRYDVGGFDYWGQGTLVTVSS VL: EILLTQSPGTLSLSPGERATLSCSVSSSISSSNLHWFQQKPGQAPRLLIYGTSNLASGIPDRFSGSGSGTSYTLTISRLEPEDFAVYYCQQWSSYPFTFGQGTKVEIK |
| binds | P13B02-09 (antibody, IgG1, V domains shown, Humanized; generated as full length IgG1) VH: QVQLVQSGAEVKKPGASVKVSCKASGFNIKDTYIHWVRQAPGQGLEWMGEIDPANDNTKYDPKFQGRVTITADTSTSTVYMELSSLRSEDTAVYYCATYYYRYDVGGFDYWGQGTLVTVSS VL: EILLTQSPGTLSLSPGERATLSCSVSSSISSSNLHWFQQKPGQAPRLWIYGTSNLASGVPDRFSGSGSGTSYTLTISRLEPEDFAVYYCQQWSSYPFTFGQGTKVEIK |
| binds | P13B02-22 (antibody, IgG1, V domains shown, Humanized; generated as full length IgG1) VH: QVQMKQSGAEVVKPGASVKVSCTASGFNIKDTYIHWVRQAPGQGLEWIGEIDPANDNTKYDPKFQGRVTITADTSSNTVYLQLSSLRSEDTAVYYCATYYYRYDVGGFDYWGQGTLVTVSS VL: EIVLTQSPGTLSLSPGERATLSCSVSSSISSSNLHWYQQKPGQAPRLLIYGTSNLASGIPDRFSGSGSGTSYTLTISRLEPEDFAVYYCQQWSSYPFTFGQGTKVEIK |
| binds | P13B02-18 (antibody, IgG1, V domains shown, Humanized; generated as full length IgG1) VH: QVQMKQSGAEVKKPGASVKVSCTASGFNIKDTYIHWVRQAPGQGLEWMGEIDPANDNTKYDPKFQGRVTITADTSSNTVYMELSSLRSEDTAVYYCATYYYRYDVGGFDYWGQGTLVTVSS VL: EILLTQSPGTLSLSPGERATLSCSVSSSISSSNLHWFQQKPGQAPRLLIYGTSNLASGIPDRFSGSGSGTSYTLTISRLEPEDFAVYYCQQWSSYPFTFGQGTKVEIK |
| binds | P13B02-17 (antibody, IgG1, V domains shown, Humanized; generated as full length IgG1) VH: QVQMKQSGAEVKKPGASVKVSCTASGFNIKDTYIHWVRQAPGQGLEWMGEIDPANDNTKYDPKFQGRVTITADTSSNTVYMELSSLRSEDTAVYYCATYYYRYDVGGFDYWGQGTLVTVSS VL: EIVLTQSPGTLSLSPGERATLSCSVSSSISSSNLHWYQQKPGQAPRLLIYGTSNLASGIPDRFSGSGSGTSYTLTISRLEPEDFAVYYCQQWSSYPFTFGQGTKVEIK |
| binds | P13B02-19 (antibody, IgG1, V domains shown, Humanized; generated as full length IgG1) VH: QVQMKQSGAEVKKPGASVKVSCTASGFNIKDTYIHWVRQAPGQGLEWMGEIDPANDNTKYDPKFQGRVTITADTSSNTVYMELSSLRSEDTAVYYCATYYYRYDVGGFDYWGQGTLVTVSS VL: EILLTQSPGTLSLSPGERATLSCSVSSSISSSNLHWFQQKPGQAPRLWIYGTSNLASGVPDRFSGSGSGTSYTLTISRLEPEDFAVYYCQQWSSYPFTFGQGTKVEIK |
| binds | P13B02-08 (antibody, IgG1, V domains shown, Humanized; generated as full length IgG1) VH: QVQLVQSGAEVKKPGASVKVSCKASGFNIKDTYIHWVRQAPGQGLEWMGEIDPANDNTKYDPKFQGRVTITADTSTSTVYMELSSLRSEDTAVYYCATYYYRYDVGGFDYWGQGTLVTVSS VL: EILLTQSPGTLSLSPGERATLSCSVSSSISSSNLHWFQQKPGQAPRLLIYGTSNLASGIPDRFSGSGSGTSYTLTISRLEPEDFAVYYCQQWSSYPFTFGQGTKVEIK |
